# Columns and labels:
# HeLa Kyoto [1] = experiment: solubility in G1/S (NP-40 vs SDS abundance) (log2 ratio); higher = more soluble; settings: cell cycle stage: G1/S
# HeLa Kyoto [2] = experiment: melting temperature (median over replicates), in situ; higher = more thermally stable
# HeLa Kyoto [3] = experiment: solubility change mitosis vs G1/S (difference of NP-40 vs SDS log2 ratios) (log2 ratio difference); higher = more soluble in mitosis
# HeLa Kyoto [4] = experiment: thermal stability score vs G1/S (z-score of summed log2 fold changes over temperatures); higher = more thermally stable than in G1/S
# [5] = cell cycle stage: early G1 (4.5 h after nocodazole release)
# 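Wherever melting temperature (median over replicates), in situ is given: HeLa Kyoto cells synchronized by double thymidine or nocodazole block, proteins quantified by TMT10plex mass spectrometry, three independent biological replicates.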
# 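Wherever solubility change mitosis vs G1/S (difference of NP-40 vs SDS log2 ratios) is given: synchronized HeLa Kyoto cells (double thymidine block for G1/S, nocodazole release for mitosis), protein amounts in NP-40 versus SDS lysates quantified by mass spectrometry, three biological replicates.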
# 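Wherever solubility in G1/S (NP-40 vs SDS abundance) is given: HeLa Kyoto cells arrested at G1/S by double thymidine block, proteins quantified by TMT10plex mass spectrometry in mild NP-40 versus SDS extracts, three biological replicates.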
# 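Wherever thermal stability score vs G1/S (z-score of summed log2 fold changes over temperatures) is given: synchronized HeLa Kyoto cells, proteins quantified by TMT10plex mass spectrometry, three biological replicates, mitosis taken 0.5 h after nocodazole release, G1/S directly after double thymidine block.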
Sequence,solubility in G1/S (log2) (HeLa Kyoto [1]),melting temperature (HeLa Kyoto [2]; cell cycle stage: G1/S),melting temperature (HeLa Kyoto [2]; cell cycle stage: mitosis),solubility change mitosis (log2) (HeLa Kyoto [3]),thermal stability score (HeLa Kyoto [4]; [5]),thermal stability score (HeLa Kyoto [4]; cell cycle stage: mitosis)
MASPPHQQLLHHHSTEVSCDSSGDSNSVRVKINPKQLSSNSHPKHCKYSISSSCSSSGDSGGVPRRVGGGGRLRRQKKLPQLFERASSRWWDPKFDSVNLEEACLERCFPQTQRRFRYALFYIGFACLLWSIYFAVHMRSRLIVMVAPALCFLLVCVGFFLFTFTKLYARHYAWTSLALTLLVFALTLAAQFQVLTPVSGRGDSSNLTATARPTDTCLSQVGSFSMCIEVLFLLYTVMHLPLYLSLCLGVAYSVLFETFGYHFRDEACFPSPGAGALHWELLSRGLLHGCIHAIGVHLFVMSQVRSRSTFLKVGQSIMHGKDLEVEKALKERMIHSVMPRIIADDLMKQGDEESENSVKRHATSSPKNRKKKSSIQKAPIAFRPFKMQQIEEVSILFADIVGFTKMSANKSAHALVGLLNDLFGRFDRLCEETKCEKISTLGDCYYCVAGCPEPRADHAYCCIEMGLGMIKAIEQFCQEKKEMVNMRVGVHTGTVLCGILGMRRFKFDVWSNDVNLANLMEQLGVAGKVHISEATAKYLDDRYEMEDGKVIERLGQSVVADQLKGLKTYLISGQRAKESRCSCAEALLSGFEVIDGSQVSSGPRGQGTASSGNVSDLAQTVKTFDNLKTCPSCGITFAPKSEAGAEGGAPQNGCQDEHKNSTKASGGPNPKTQNGLLSPPQEEKLTNSQTSLCEILQEKGRWAGVSLDQSALLPLRFKNIREKTDAHFVDVIKEDSLMKDYFFKPPINQFSLNFLDQELERSYRTSYQEEVIKNSPVKTFASPTFSSLLDVFLSTTVFLTLSTTCFLKYEAATVPPPPAALAVFSAALLLEVLSLAVSIRMVFFLEDVMACTKRLLEWIAGWLPRHCIGAILVSLPALAVYSHVTSEYETNIHFPVFTGSAALIAVVHYCNFCQLSSWMRSSLATVVGAGPLLLLYVSLCPDSSVLTSPLDAVQNFSSERNPCNSSVPRDLRRPASLIGQEVVLVFFLLLLLVWFLNREFEVSYRLHYHGDVEADLHRTKIQSMRDQADWLLRNIIPYHVAEQLKVSQTYSKNHDSGGVIFASIVNFSEFYEENYEGGKECYRVLNELIGDFDELLSKPDYSSIEKIKTIGATYMAASGLNTAQAQDGSHPQEHLQILFEFAKEMMRVVDDFNNNMLWFNFKLRVGFNHGPLTAGVIGTTKLLYDIWGDTVNIASRMDTTGVECRIQVSEESYRVLSKMGYDFDYRGTVNVKGKGQMKTYLYPKCTDHRVIPQHQLSISPDIRVQVDGSIGRSPTDEIANLVPSVQYVDKTSLGSDSSTQAKDAHLSPKRPWKEPVKAEERGRFGKAIEKDDCDETGIEEANELTKLNVSKSV [ADCY9],-0.0462,52.3 °C,52 °C,-0.172,0.368,-0.65
MASRGATRPNGPNTGNKICQFKLVLLGESAVGKSSLVLRFVKGQFHEFQESTIGAAFLTQTVCLDDTTVKFEIWDTAGQERYHSLAPMYYRGAQAAIVVYDITNEESFARAKNWVKELQRQASPNIVIALSGNKADLANKRAVDFQEAQSYADDNSLLFMETSAKTSMNVNEIFMAIAKKLPKNEPQNPGANSARGRGVDLTEPTQPTRNQCCSN [RAB5A],0.00572,57.3 °C,56.4 °C,0.0351,-1.4,-3.38
MASSAEGDEGTVVALAGVLQSGFQELSLNKLATSLGASEQALRLIISIFLGYPFALFYRHYLFYKETYLIHLFHTFTGLSIAYFNFGNQLYHSLLCIVLQFLILRLMGRTITAVLTTFCFQMAYLLAGYYYTATGNYDIKWTMPHCVLTLKLIGLAVDYFDGGKDQNSLSSEQQKYAIRGVPSLLEVAGFSYFYGAFLVGPQFSMNHYMKLVQGELIDIPGKIPNSIIPALKRLSLGLFYLVGYTLLSPHITEDYLLTEDYDNHPFWFRCMYMLIWGKFVLYKYVTCWLVTEGVCILTGLGFNGFEEKGKAKWDACANMKVWLFETNPRFTGTIASFNINTNAWVARYIFKRLKFLGNKELSQGLSLLFLALWHGLHSGYLVCFQMEFLIVIVERQAARLIQESPTLSKLAAITVLQPFYYLVQQTIHWLFMGYSMTAFCLFTWDKWLKVYKSIYFLGHIFFLSLLFILPYIHKAMVPRKEKLKKME [LPCAT3],-0.0534,–,55.7 °C,-0.275,0.0481,-0.776
